Data from US20260234242A1 (HAINAN SIMCERE ZAIMING PHARMACEUTICAL, published 2026).
Numbering of substitutions follows the chain as printed.

T1: human CDH6 on tumor cells (OVCAR3 cells, PA-1 cells) (human, UniProt P55285 54-790)
T1 sequence: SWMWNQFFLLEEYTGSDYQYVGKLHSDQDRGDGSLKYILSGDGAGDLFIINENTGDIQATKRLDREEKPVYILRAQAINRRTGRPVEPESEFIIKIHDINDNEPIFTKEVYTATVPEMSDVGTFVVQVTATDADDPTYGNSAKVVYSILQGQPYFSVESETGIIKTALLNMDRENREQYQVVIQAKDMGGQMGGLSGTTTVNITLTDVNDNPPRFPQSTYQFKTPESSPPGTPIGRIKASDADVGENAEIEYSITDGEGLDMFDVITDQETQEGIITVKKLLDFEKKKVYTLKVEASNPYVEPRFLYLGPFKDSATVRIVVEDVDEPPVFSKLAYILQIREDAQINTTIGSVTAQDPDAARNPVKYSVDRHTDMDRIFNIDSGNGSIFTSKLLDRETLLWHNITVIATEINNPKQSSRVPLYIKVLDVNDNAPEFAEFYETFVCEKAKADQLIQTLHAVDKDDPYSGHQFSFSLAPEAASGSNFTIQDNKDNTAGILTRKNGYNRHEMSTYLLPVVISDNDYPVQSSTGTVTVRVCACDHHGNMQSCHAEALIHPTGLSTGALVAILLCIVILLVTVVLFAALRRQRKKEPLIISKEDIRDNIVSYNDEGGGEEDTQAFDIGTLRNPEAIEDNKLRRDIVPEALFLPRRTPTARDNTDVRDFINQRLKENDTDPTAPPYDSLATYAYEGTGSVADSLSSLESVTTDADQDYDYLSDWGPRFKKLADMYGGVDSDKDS

B1: CHI-CDH6-11 (antibody, human IgG1, kappa, V domains shown)
VH: QIQLQQSGPELVKPGASVRISCKASGYTFTDYYITWVKLRPGQGLEWIGWIYPGSVNIKYNEKFKGKATLTVDTSSSTAYMQLNSLTSEDSAVYFCARGGYSWFPYWGQGTLVTVSA
VL: NIVMTQSPKSMSMSVGERVTLSCKASENVHTYVSWYQQKPEQSPKLLFYGASTRNTGVPDRFTGSGSATDFTLTISSVQAEDLADYYCGQSYSYPYTFGSGTKLEIKR
notes: also called chimeric antibody of murine CDH6-11
B2: CHI-CDH6-6 (antibody, human IgG1, kappa, V domains shown)
VH: EVQLQQSGPELVKPGDSVKMSCKASGYTFTDYYMAWVRQSHRKSLEWIGYIFPNSGGTDYSQKFKGKATLTVDKSSSTVYMELHSLTSEDSAVYYCARELGADYGDYYAMDHWGQGTSVSVSS
VL: DIQMTQSPASLSASVGETVTITCRASENIDSYLAWYQQKQGKSPQLLVYSATLLADGVPSRFSGSGSGTQYSLKINSLKSEDVARYYCQHYYRTPPTFGSGTKLEIKR
notes: also called CHI-hCDH6-6; chimeric antibody of murine CDH6-6
B3: CHI-CDH6-8 (antibody, human IgG1, kappa, V domains shown)
VH: EVQLQQSGPELVKPGDSVKMSCKASGYTFTDYYMAWIKQNHGKSLEWIGYIYPNNGGTDYNQKFRGKATLTVDKSSSAAYMELHSLTSEDSAVYYCAREIGTLYGDYYAMDYWGQGTSVTVSS
VL: B2 VL with S50T, K79Q, R93S
notes: also called chimeric antibody of murine CDH6-8
B4: CHI-CDH6-7 (antibody, human IgG1, kappa, V domains shown)
VH: EVKLVESGGGLVKPGGSLKVSCAASGFTFSDHGMAWVRQAPGKGPEWVAFISNLAYSIYYADTVTGRFTISRENAKNTLYLEMSSLRSEDTAMYYCARVYVKWYFDVWGAGTTVTVSS
VL: B2 VL with Y49F, S50A, K79Q, R93S, P96L, S100A, I106L
notes: also called CH1-CDH6-7; chimeric antibody of murine CDH6-7
B5: CHI-CDH6-1 (antibody, human IgG1, kappa, V domains shown)
VH: QVQLQQPGAELVRPGSSVKLSCKASGYTFTNYWMHWVKQRPIEGLEWIGDIDPSHSETHYTQKFKDKATLTVDKSSSTAYMQLSSLTSEDSAVYYCARGDLGRFDYWGQGTTLTVSS
VL: DIVLTQSPASLAVSLGQRATISCRASESVSIHGTHLMHWYQQKSGQPPKLLIYAASNLESGVPARFSGSGSETDFTFNIHPVEEEDAATYFCQQSFEDPWTFGGGTKLEIKR
notes: also called CHI-hCDH6-1; CH1-CDH6-1
B6: CHI-CDH6-10 (antibody, human IgG1, kappa, V domains shown)
VH: QVQLQQPGAELVKPGTSVKMSCKASGYTFTSDWIAWVKQRPGQGLEWIGDIYPGSGRTHNNEKFNFKATLTVDTSSNTAYMQLSSLTSEDSAVYFCARPMLGRFDYWGQGTTLTVSS
VL: B5 VL with S44P, F77L, W100F, G104S
notes: also called chimeric antibody of murine CDH6-10
B7: CHI-CDH6-4 (antibody, human IgG1, kappa, V domains shown)
VH: QVQLQQSGPELVKPGASVKISCKASGYAFSNFWMNWVKQRPGKGLEWIGWIYPGDGDTNYNGKFKDKATLTADKSSSTAYIQLSSLTSEDSAVYFCARLYDAWGFFDYWGQGTTLTVSS
VL: QIVLTQSPAIMSASPGQKVTITCSASSSVNYMHWYQQKLGSSPKLWIYDKSKLAPGVPARFSGSGSGTSYSLTISSMEAEDAASYFCHQWSSYPPMTFGGGTKLEIKR
notes: also called CH1-CDH6-4; chimeric antibody of murine CDH6-4
B8: CHI-CDH6-12 (antibody, human IgG1, kappa, V domains shown)
VH: EVNLVESGGGLVQPGDSLTLSCSASGFTFTDYYMSWVRQFPGKALEWLALIRNKANSYTTEYSASVKGRFTISRDNSQSILYLQMNALRAEDSATYYCARDSYYSHDGFAYWGQGTLVTVSA
VL: DIVLTQSPASLAVSLGQRATISCRASKSVSTSSYTYMHWYQQKPGQPPKLLIKFASYLESGVPARFSGSGSGTDFTLNIHPVEEEDAATYYCQHSREFPFTFGTGTKLEIKR
notes: also called CH1-CDH6-12; chimeric antibody of murine CDH6-12
B9: DS-H01L02 (antibody, human IgG1, kappa, V domains shown)
VH: EVQLVQSGAEVKKPGASVKVSCKASGYTFTRNFMHWVRQAPGQGLEWMGWIYPGDGETEYAQKFQGRVTITADTSTSTAYMELSSLRSEDTAVYYCARGVYGGFAGGYFDFWGQGTLVTVSS
VL: DIQMTQSPSSLSASVGDRVTITCKASQNIYKNLAWYQQKPGKAPKLLIYDANTLQTGVPSRFSGSGSGSDFTLTISSLQPEDFATYFCQQYYSGWAFGQGTKVEIKR
notes: Positive control, variable regions from WO2018212136A1; also called positive control anti-human CDH6 antibody
B10: CHI-CDH6-5 (antibody, human IgG1, kappa, V domains shown)
VH: QVQLQQSGAELVRPGTSVKMSCKAAEYTFTNYWIGWVKQRPGHGLEWIGDLYPGGDHANYNEKFEGKATLTADTSSSTAYMQLSSLTSEDSAIYYCARGMLTTGFDSWGQGTTLTVSS
VL: DIVMSQSPSSLAVSAGEKVTMSCKSSQSLFNSRTRKNYLAWYQQKPGQSPKLLIYWASTRESGVPDRFTGSGSGTDFTLTISSVQAEDLAVYYCKQSYYLRTFGGGTKLEIKR
notes: also called CH1-CDH6-5; chimeric antibody of murine CDH6-5
B11: CHI-CDH6-14 (antibody, human IgG1, kappa, V domains shown)
VH: QIQLQQSGPELVKPGTSVKISCKASGYTFTDNYINWVRQRPGQGLEWIGWIYPGTGNSYYNEKFKGKATLTVDTSSSTAYMQFSSLTSEDSAVYLCASSYGDSFDYWGQGTTLTVSS
VL: DIQMTQTTSSLSASLGNRVTISCRASQDIRNYLNWYQQKPDGTFKLLISYTSRLHSGVPSRFSGSGSGTDYSLTVSNLEPEDIATYYCQQYSQLPWTFGGGSRLEIKR
notes: also called CHI-hCDH6-14; CH1-CDH6-14
B12: CHI-CDH6-9 (antibody, human IgG1, kappa, V domains shown)
VH: QVQLQQPGAELVKPGASVKLSCKASGYTFTGYWMHWVRQRPGQGLEWIGEINPNNGGTNCNEQFKNKATLTVDKSSSTAYMQLSSLTSEDSAVFYCTISFGNYLFFDVWGAGTTVTVSS
VL: DIQMTQSPASLAASVGETITITCQASENIYFSLAWYQQKQGKSPQLLIYNANTLEDGVPSRFVGSGSGTQYSMKINSIQPEDTATYFCDQTYDFPWTFGGGTKLEIKR
notes: also called chimeric antibody of murine CDH6-9
B13: CHI-CDH6-3 (antibody, human IgG1, kappa, V domains shown)
VH: QVQLQQPGAELVKPGASVKLSCKASGYTFTSYWIHWVKQRPGQGLEWIGEINPSNGVTNCNENFKSKATLTVDKSSSTAYMQLSSLTSEDSAVYYCTIPNLLWWYFDVWGAGTTVTVSS
VL: DIQMTQSPASLSVSVGETVTITCRASENIYSNLAWYQQKQGKSPQLLVYEATNLADGVPSRFSGSGSGTQYSLKINSLQSEDFGSYYCQHFWGTLWTFGGGTKLEIKR
notes: also called CH1-CDH6-3; chimeric antibody of murine CDH6-3
B14: CHI-CDH6-2 (antibody, human IgG1, kappa, V domains shown)
VH: EVQLQQSGPELVKPGASVRISCKASGYTFTDYYMNWVKQSHGKSLEWIGDIDPNNANTTYNQKFKGKATLTVDKSSSTAYMELRSLTSEDSAVYSCASFGYDVEWFGYWGQGTLVTVSA
VL: QIVLTQSPALMSASPGEKVTMTCSASSSVSYMYWYQQKPRSSPKPWIYLTSNLASGVPARFSGSGSGTSYSLTISSMEAEDAATYYCQQWSSNPFTFGSGTKLEIKR
notes: also called chimeric antibody of murine CDH6-2
B15: CHI-CDH6-13 (antibody, human IgG1, kappa, V domains shown)
VH: DVQLQESGPGLVKPSQSLSLTCSVTGYSITKDSYWNWIRQFPGSKLEWMGFISYDGSRHYNPSLKNRISITRDTSKNQFFLQLNSVTTEDTATYYCARRDYADYWGQGTTLTVSS
VL: B14 VL with S14F, S26T, M32I, S75N, M77L, N93I, F95Y, S99G
notes: also called chimeric antibody of murine CDH6-13

Molecular target: T1, human CDH6 on tumor cells (OVCAR3 …)
Assay: FACS, OVCAR3 cells, 4° C. arm of endocytosis assay, antibody diluted to 10 µg/mL
Experimental: OVCAR3 cells were cultured until a confluence of 90% was reached, the medium was removed by pipetting, the cells were washed once with PBS, and then treated with an enzyme-free cell dissociation solution (Versene, purchased from Gibco, Cat. No. 15040-066) and the cells were collected. The cells were washed once with PBS, counted, resuspended to 2×10⁶ cells/mL in an FACS buffer (PBS+2% FBS), and then added to two 96-well plates at 50 μL/well. The chimeric antibodies were diluted with FACS buffer (PBS+2% FBS) to 10 μg/mL and separately added to the two 96-well plates at 50 μL/well, and the plates were incubated at 4° C. for 1 h. After the cells were washed 3 times with PBS, the cells were resuspended in an FACS buffer. One 96-well plate was incubated at 4° C. for 1 h, and the other 96-well plate was incubated at 37° C. for 1 h. […] After the plates were centrifuged and washed 2 times with PBS, the cells were resuspended in an FACS buffer. The mean fluorescence intensity (MFI) was measured using FACS Canton II (BD). The chimeric antibodies tested all had good endocytic activity.

Binder	MFI_4° C. [MFI]
B1	10400
B2	9930
B3	10100
B4	5580
B5	10600
B6	10100
B7	9520
B8	5740
B9	3830
B10	8810
B11	9230
B12	11000
B13	9280
B14	11100
B15	5970

Molecular target: T1, human CDH6 on tumor cells (OVCAR3 …)
Assay: FACS, OVCAR3 cells
Experimental: OVCAR3 cells with high expression of CDH6 and PA-1 cells with moderate expression of CDH6 were used to detect the binding activity of the antibodies to the cells. […] The cells were washed once with PBS, counted, resuspended to 2×10⁶ cells/mL in an FACS buffer (PBS+2% FBS), and then added to a 96-well plate at 50 μL/well. The chimeric antibodies were diluted with FACS buffer (PBS+2% FBS) and added to the 96-well plate at 50 μL/well, and the plate was incubated at 4° C. for 1 h. […] The dilution was added to the 96-well plate at 50 μL/well, and the plate was incubated at 4° C. for 1 h. After the plates were centrifuged and washed 2 times with PBS, the cells were resuspended in an FACS buffer. The mean fluorescence intensity (MFI) was measured using FACS Canton II (BD). Analysis was performed by the GraphPad Prism software, data were fitted, and EC50 values were calculated. The chimeric antibodies tested had strong binding to both OVCAR3 cells and PA-1 cells.

Binder	EC50 [nM]	Max MFI [MFI]
B1	2.14	14500
B2	0.67	14800
B3	0.46	16100
B4	5.57	12000
B5	0.13	14700
B6	0.2	13900
B7	3.17	14000
B8	2.22	12500
B9	0.8	9730
B10	0.57	12700
B11	0.43	15700
B12	0.51	18200
B13	1.16	15500
B14	0.36	15600
B15	2.08	17600
